Laboratory results taken from the supplement of paper PMC10567573.

B1: NETO1 (parent)
chain: GFSPIIGRFCGQQNPPVIKSSGRF
B2: TRAF3IP2 (parent)
chain: APWNYHYHCPGSPDHQVPYGHDYP
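Note: lentivirally expressed fusions sorted by FACS into six bins by GFP to DsRed ratio, PSI derived from sequencing read proportions per bin multiplied by bin number.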

Variants of: B1
Test: protein stability index of a GFP-peptide fusion (GPS, HEK-293T) (PSI 1-6); higher = more stable
Settings: c terminus: a fixed tail appended
In the case of GFSPIKGRFCGQQNPPVIKSSGRF [I6K], the protein stability index is reported as 3.17. For GFSPIGGRFCGQQNPPVIKSSGRF [I6G], the protein stability index was 2.58. GFSPIMGRFCGQQNPPVIKSSGRF [I6M] showed a protein stability index of 2.05. With GFSPISGRFCGQQNPPVIKSSGRF [I6S] the protein stability index was 2.94. GFSPIQGRFCGQQNPPVIKSSGRF [I6Q] gave a protein stability index of 2.38. GFSPIYGRFCGQQNPPVIKSSGRF [I6Y] gave a protein stability index of 1.91. With GFSPIFGRFCGQQNPPVIKSSGRF [I6F] the protein stability index was 2.16. For GFSPICGRFCGQQNPPVIKSSGRF [I6C], the protein stability index was 2.11. In the case of GFSPITGRFCGQQNPPVIKSSGRF [I6T], the protein stability index is reported as 2.39. GFSPIDGRFCGQQNPPVIKSSGRF [I6D] showed a protein stability index of 3.54. For GFSPIHGRFCGQQNPPVIKSSGRF [I6H], the protein stability index was 2.77. With GVSPIIGRFCGQQNPPVIKSSGRF [F2V] the protein stability index was 2.13. GYSPIIGRFCGQQNPPVIKSSGRF [F2Y] showed a protein stability index of 2.02. In the case of GISPIIGRFCGQQNPPVIKSSGRF [F2I], the protein stability index is reported as 2.25. Variant GESPIIGRFCGQQNPPVIKSSGRF [F2E] has a protein stability index of 3.09. For GNSPIIGRFCGQQNPPVIKSSGRF [F2N], the protein stability index was 2.78. Variant GRSPIIGRFCGQQNPPVIKSSGRF [F2R] has a protein stability index of 2.16. For GWSPIIGRFCGQQNPPVIKSSGRF [F2W], the protein stability index was 1.52. With GLSPIIGRFCGQQNPPVIKSSGRF [F2L] the protein stability index was 2.55. With GASPIIGRFCGQQNPPVIKSSGRF [F2A] the protein stability index was 2.35. Work on GKSPIIGRFCGQQNPPVIKSSGRF [F2K] yielded a protein stability index of 2.28. With GQSPIIGRFCGQQNPPVIKSSGRF [F2Q] the protein stability index was 2.91. For GSSPIIGRFCGQQNPPVIKSSGRF [F2S], the protein stability index was 2.75. With GTSPIIGRFCGQQNPPVIKSSGRF [F2T] the protein stability index was 2.46. With GGSPIIGRFCGQQNPPVIKSSGRF [F2G] the protein stability index was 2.54. Variant GMSPIIGRFCGQQNPPVIKSSGRF [F2M] has a protein stability index of 2. In the case of GDSPIIGRFCGQQNPPVIKSSGRF [F2D], the protein stability index is reported as 2.68. GPSPIIGRFCGQQNPPVIKSSGRF [F2P] showed a protein stability index of 2.5. GHSPIIGRFCGQQNPPVIKSSGRF [F2H] showed a protein stability index of 2.15. With GCSPIIGRFCGQQNPPVIKSSGRF [F2C] the protein stability index was 2.73.

Variants of: B2
Test: as above
Settings: c terminus: a fixed tail appended
With APWNYHYHCPGSPDHQVPYGHDSP [Y23S] the protein stability index was 2.85. APWNYHYHCPGSPDHQVPYGHDNP [Y23N] gave a protein stability index of 2.08. In the case of APWNYHYHCPGSPDHQVPYGHDTP [Y23T], the protein stability index is reported as 2.89. With APWNYHYHCPGSPDHQVPYGHDQP [Y23Q] the protein stability index was 2.92. APWNYHYHCPGSPDHQVPYGHDLP [Y23L] gave a protein stability index of 2.27. With APWNYHYHCPGSPDHQVPYGHDDP [Y23D] the protein stability index was 3.83. With APWNYHYHCPGSPDHQVPYGHDHP [Y23H] the protein stability index was 1.88. For APWNYHYHCPGSPDHQVPYGHDWP [Y23W], the protein stability index was 1.68. For APWNYHYHCPGSPDHQVPYGHDKP [Y23K], the protein stability index was 3.12. APWNYHYHCPGSPDHQVPYGHDIP [Y23I] showed a protein stability index of 2.3. Variant APWNYHYHCPGSPDHQVPYGHDVP [Y23V] has a protein stability index of 1.97. APWNYHYHCPGSPDHQVPYGHDEP [Y23E] gave a protein stability index of 3.61. With APWNYHYHCPGSPDHQVPYGHDAP [Y23A] the protein stability index was 2.85. In the case of APWNYHYHCPGSPDHQVPYGHDPP [Y23P], the protein stability index is reported as 3.06. APWNYHYHCPGSPDHQVPYGHDGP [Y23G] showed a protein stability index of 2.92. Work on APWNYHYHCPGSPDHQVPYGHDRP [Y23R] yielded a protein stability index of 2.9. Work on APWNYHYHCPGSPDHQVPYGHDFP [Y23F] yielded a protein stability index of 2. In the case of APWNYHYHCPGSPDHQVPYGHDCP [Y23C], the protein stability index is reported as 1.91. Work on APWNYHYHCPGSPDHQVPYGHDMP [Y23M] yielded a protein stability index of 2.25. APWNYHYHCPGSPDHQVPYGHDYM [P24M] showed a protein stability index of 1.66. APWNYHYHCPGSPDHQVPYGHDYK [P24K] showed a protein stability index of 2.8. Work on APWNYHYHCPGSPDHQVPYGHDYE [P24E] yielded a protein stability index of 4.07. In the case of APWNYHYHCPGSPDHQVPYGHDYV [P24V], the protein stability index is reported as 1.96. Variant APWNYHYHCPGSPDHQVPYGHDYF [P24F] has a protein stability index of 2.01. Variant APWNYHYHCPGSPDHQVPYGHDYI [P24I] has a protein stability index of 1.72. For APWNYHYHCPGSPDHQVPYGHDYN [P24N], the protein stability index was 2.93. APWNYHYHCPGSPDHQVPYGHDYY [P24Y] gave a protein stability index of 1.86. For APWNYHYHCPGSPDHQVPYGHDYL [P24L], the protein stability index was 1.96. In the case of APWNYHYHCPGSPDHQVPYGHDYA [P24A], the protein stability index is reported as 2.51. Work on APWNYHYHCPGSPDHQVPYGHDYR [P24R] yielded a protein stability index of 2.73. Work on APWNYHYHCPGSPDHQVPYGHDYS [P24S] yielded a protein stability index of 2.21. For APWNYHYHCPGSPDHQVPYGHDYC [P24C], the protein stability index was 2.02. For APWNYHYHCPGSPDHQVPYGHDYG [P24G], the protein stability index was 1.62. Work on APWNYHYHCPGSPDHQVPYGHDYW [P24W] yielded a protein stability index of 1.94. Variant APWNYHYHCPGSPDHQVPYGHDYT [P24T] has a protein stability index of 2.63. APWNYHYHCPGSPDHQVPYGHDYQ [P24Q] gave a protein stability index of 2.28. Variant APWNYHYHCPGSPDHQVPYGHDYH [P24H] has a protein stability index of 3.02. Work on APWNYHYHCPGSPDHQVPYGHDYD [P24D] yielded a protein stability index of 3.88. APWNYHYHCPGSPDHQVPYGHYYP [D22Y] gave a protein stability index of 2.08. Work on APWNYHYHCPGSPDHQVPYGHPYP [D22P] yielded a protein stability index of 2.68. Work on APWNYHYHCPGSPDHQVPYGHAYP [D22A] yielded a protein stability index of 1.72. APWNYHYHCPGSPDHQVPYGHEYP [D22E] showed a protein stability index of 2.36. In the case of APWNYHYHCPGSPDHQVPYGHGYP [D22G], the protein stability index is reported as 2.41. With APWNYHYHCPGSPDHQVPYGHFYP [D22F] the protein stability index was 1.55. APWNYHYHCPGSPDHQVPYGHLYP [D22L] showed a protein stability index of 1.9. Work on APWNYHYHCPGSPDHQVPYGHTYP [D22T] yielded a protein stability index of 2.42. Work on APWNYHYHCPGSPDHQVPYGHCYP [D22C] yielded a protein stability index of 1.41. Variant APWNYHYHCPGSPDHQVPYGHRYP [D22R] has a protein stability index of 2.18. Work on APWNYHYHCPGSPDHQVPYGHKYP [D22K] yielded a protein stability index of 2.73. Variant APWNYHYHCPGSPDHQVPYGHVYP [D22V] has a protein stability index of 1.6. Work on APWNYHYHCPGSPDHQVPYGHWYP [D22W] yielded a protein stability index of 2.16. In the case of APWNYHYHCPGSPDHQVPYGHSYP [D22S], the protein stability index is reported as 2.33. For APWNYHYHCPGSPDHQVPYGHIYP [D22I], the protein stability index was 1.16. Work on APWNYHYHCPGSPDHQVPYGHQYP [D22Q] yielded a protein stability index of 2.16. APWNYHYHCPGSPDHQVPYGHNYP [D22N] gave a protein stability index of 1.36. In the case of APWNYHYHCPGSPDHQVPYGHMYP [D22M], the protein stability index is reported as 1.95. APWNYHYHCPGSPDHQVPYGRDYP [H21R] gave a protein stability index of 2.4. Work on APWNYHYHCPGSPDHQVPYGYDYP [H21Y] yielded a protein stability index of 2.35. Variant APWNYHYHCPGSPDHQVPYGQDYP [H21Q] has a protein stability index of 2.17. For APWNYHYHCPGSPDHQVPYGSDYP [H21S], the protein stability index was 2.05. In the case of APWNYHYHCPGSPDHQVPYGWDYP [H21W], the protein stability index is reported as 2.69. APWNYHYHCPGSPDHQVPYGVDYP [H21V] gave a protein stability index of 1.54. APWNYHYHCPGSPDHQVPYGTDYP [H21T] gave a protein stability index of 2.03. In the case of APWNYHYHCPGSPDHQVPYGPDYP [H21P], the protein stability index is reported as 2.48.
